± gives the uncertainty stated by the source.
Assay: self-splicing fitness, log relative to wild type (ln ratio); higher = more splicing; Tetrahymena group I intron in knt gene, E. coli kanamycin selection, DiMSum; sequences stand for … in CUCUCU…GGAGGGAAAAGUUAUCAGGCAUGCACCUGGUAGCUAGUCUUUAAACCAAUAGAUUGCAUCGGUUUAAAAGGCAAGACCGUCAAAUUGCGGGAAAGGGGUCAACAGCCGUUCAGUACCAAGUCUCAGGGGAAACUUUGAGAUGGCCUUGCAAAGGGUAUGGUAAUAAGCUGACGGACAUGGUCCUAACCACGCAGCCAAGUCCUAAGUCAACAGAUCUUCUGUUGAUAUGGAUGCAGUUCACAGACUAAAUGUCGGUCGGGGAAGAUGUAUUCUUCUCAUAAGAUAUAGUCGGACCUCUCCUUAAUGGGAGCUAGCGGAUGAAGUGAUGCAACACUGGAGCCGCUGGGAACUAAUUUGUAUGCGAAAGUAUAUUGAUUAGUUUUGGAGUACUCGUGGUCG
In short: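 Pooled colonies went to amplicon sequencing on an Illumina HiSeq 2500 after six replicate transformations. The plates were LB agar with 100 μg/mL carbenicillin, 50 μM IPTG and 0.2% rhamnose, with or without 25 μg/mL kanamycin, incubated overnight at 37°C or 30°C. The E. coli BL21(DE3) library had all eight P1ex-region intron nucleotides randomised, the intron placed in the knt kanamycin-resistance gene on pET-22b(+). DiMSum fitness is the error-weighted combination of replicate fold changes, kanamycin against none, normalised to wild type.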

| Sequence | self-splicing fitness (ln) (30 °C) | self-splicing fitness (ln) (37 °C) |
| --- | --- | --- |
| ACCGAGCAAUAUUACGGGCA | -0.957 ± 0.1 | -0.109 ± 0.11 |
| ACCGAGCAAUAUUACGGGUG | -1.43 ± 0.061 | -1.08 ± 0.068 |
| ACCGAGCAAUAUUACGUACA | -2.64 ± 0.27 | -2.04 ± 0.27 |
| ACCGAGCAAUAUUACGUAGU | -3.62 ± 0.18 | -2.26 ± 0.15 |
| ACCGAGCAAUAUUACGUAUC |  | -2.59 ± 0.25 |
| ACCGAGCAAUAUUACGUCAA | -3.16 ± 0.19 | -2.36 ± 0.3 |
| ACCGAGCAAUAUUACGUCGC | -3.69 ± 0.28 |  |
| ACCGAGCAAUAUUACGUGGC | -4.18 ± 0.2 | -2.21 ± 0.18 |
| ACCGAGCAAUAUUACGUGUU | -3.76 ± 0.19 | -2.65 ± 0.24 |
| ACCGAGCAAUAUUACGUUGA | -2.98 ± 0.17 | -2.59 ± 0.21 |
| ACCGAGCAAUAUUACGUUGG | -4.16 ± 0.27 | -2.41 ± 0.22 |
| ACCUAGCAAUAUUACGAAAA | -2.66 ± 0.18 | -1.7 ± 0.13 |
| ACCUAGCAAUAUUACGAACU | -0.308 ± 0.084 | 0.0875 ± 0.11 |
| ACCUAGCAAUAUUACGACGU | -0.142 ± 0.071 | 0.371 ± 0.084 |
| ACCUAGCAAUAUUACGAGGU | -3.09 ± 0.17 | -2.43 ± 0.17 |
| ACCUAGCAAUAUUACGCAAC | -1.98 ± 0.16 | -0.895 ± 0.094 |
| ACCUAGCAAUAUUACGCCAA | -3.4 ± 0.27 | -2.09 ± 0.23 |
| ACCUAGCAAUAUUACGCCCU | -0.142 ± 0.12 | -0.462 ± 0.14 |
| ACCUAGCAAUAUUACGCCUG | -2.69 ± 0.19 | -1.66 ± 0.22 |
| ACCUAGCAAUAUUACGCGAA | -3.01 ± 0.19 | -1.99 ± 0.12 |
| ACCUAGCAAUAUUACGCGUA | -2.46 ± 0.17 | -1.22 ± 0.11 |
| ACCUAGCAAUAUUACGGCUA | -2.93 ± 0.13 | -2.65 ± 0.17 |
| ACCUAGCAAUAUUACGGUAU | -3.08 ± 0.14 | -1.44 ± 0.11 |
| ACCUAGCAAUAUUACGGUUC | -4.77 ± 0.34 | -2.62 ± 0.24 |

| Sequence | self-splicing fitness (ln) (30 °C) | self-splicing fitness (ln) (37 °C) |
| --- | --- | --- |
| ACCUAGCAAUAUUACGGUUU | -1.85 ± 0.065 | -0.482 ± 0.087 |
| ACCUAGCAAUAUUACGUAGU | -2.07 ± 0.09 | -0.568 ± 0.081 |
| ACCUAGCAAUAUUACGUCCU | -0.685 ± 0.067 | -0.579 ± 0.075 |
| ACCUAGCAAUAUUACGUCUC | -1.59 ± 0.096 | -0.658 ± 0.14 |
| ACCUAGCAAUAUUACGUUGU | -1.79 ± 0.066 | -1.12 ± 0.082 |
| ACCUAGCAAUAUUACGUUUC | -3.55 ± 0.13 | -1.94 ± 0.13 |
| ACGAAGCAAUAUUACGAAGC | -3.6 ± 0.27 | -2.61 ± 0.3 |
| ACGAAGCAAUAUUACGAAGU | -3.44 ± 0.16 | -2.86 ± 0.2 |
| ACGAAGCAAUAUUACGACGG | -1.2 ± 0.12 | -0.994 ± 0.094 |
| ACGAAGCAAUAUUACGAGAU | -4.36 ± 0.17 | -1.79 ± 0.16 |
| ACGAAGCAAUAUUACGAUGA | -1.88 ± 0.18 | -1.29 ± 0.17 |
| ACGAAGCAAUAUUACGCAGC | -2.47 ± 0.21 | -0.916 ± 0.18 |
| ACGAAGCAAUAUUACGCCCC | -0.521 ± 0.21 | -2.24 ± 0.39 |
| ACGAAGCAAUAUUACGCGCG | -0.867 ± 0.12 | -0.486 ± 0.18 |
| ACGAAGCAAUAUUACGCUUU | -3.88 ± 0.22 | -2.63 ± 0.22 |
| ACGAAGCAAUAUUACGGCUC | -3.05 ± 0.22 | -1.62 ± 0.23 |
| ACGAAGCAAUAUUACGGCUU | -3.97 ± 0.24 | -2.76 ± 0.22 |
| ACGAAGCAAUAUUACGGGCC | -2.74 ± 0.15 | -1.7 ± 0.14 |
| ACGAAGCAAUAUUACGGUGA | -2.33 ± 0.088 | -1.48 ± 0.085 |
| ACGAAGCAAUAUUACGUACC | -1.3 ± 0.14 | -1.17 ± 0.19 |
| ACGAAGCAAUAUUACGUAUU | -3.11 ± 0.087 | -2.18 ± 0.093 |
| ACGAAGCAAUAUUACGUCCU | -0.493 ± 0.083 | -0.288 ± 0.11 |
| ACGAAGCAAUAUUACGUCUG | -0.601 ± 0.069 | -0.997 ± 0.092 |
| ACGAAGCAAUAUUACGUGAA | -2.43 ± 0.089 | -1.64 ± 0.13 |

| Sequence | self-splicing fitness (ln) (30 °C) | self-splicing fitness (ln) (37 °C) |
| --- | --- | --- |
| ACGAAGCAAUAUUACGUGAU | -2.04 ± 0.054 | -0.989 ± 0.072 |
| ACGAAGCAAUAUUACGUGGA | -2.7 ± 0.13 | -2.69 ± 0.18 |
| ACGAAGCAAUAUUACGUGUG | -2.16 ± 0.054 | -0.817 ± 0.063 |
| ACGAAGCAAUAUUACGUUCC | -2.97 ± 0.2 | -1.29 ± 0.16 |
| ACGCAGCAAUAUUACGACCC | -1.66 ± 0.18 | -0.0893 ± 0.28 |
| ACGCAGCAAUAUUACGACUG | -2.72 ± 0.14 | -2.02 ± 0.2 |
| ACGCAGCAAUAUUACGAUUC | -2.28 ± 0.085 | -1.43 ± 0.096 |
| ACGCAGCAAUAUUACGCACA | -0.862 ± 0.11 | -0.0125 ± 0.12 |
| ACGCAGCAAUAUUACGCCGG | -2 ± 0.11 | -0.692 ± 0.15 |
| ACGCAGCAAUAUUACGCGCG | -2.59 ± 0.18 | -2.07 ± 0.2 |
| ACGCAGCAAUAUUACGCGGA | -2.95 ± 0.22 | -1.87 ± 0.17 |
| ACGCAGCAAUAUUACGCGGU | -4.57 ± 0.19 | -2.37 ± 0.12 |
| ACGCAGCAAUAUUACGCGUA | -3.63 ± 0.23 | -2.1 ± 0.15 |
| ACGCAGCAAUAUUACGGACG | -1.31 ± 0.05 | -0.318 ± 0.07 |
| ACGCAGCAAUAUUACGGAUG | -3.06 ± 0.15 | -1.67 ± 0.14 |
| ACGCAGCAAUAUUACGGAUU | -2.19 ± 0.08 | -0.83 ± 0.085 |
| ACGCAGCAAUAUUACGGCCC | -0.00164 ± 0.16 | 0.0347 ± 0.18 |
| ACGCAGCAAUAUUACGGGCA | -1.08 ± 0.081 | -0.293 ± 0.094 |
| ACGCAGCAAUAUUACGGUAG | -3.56 ± 0.17 | -2.94 ± 0.19 |
| ACGCAGCAAUAUUACGGUCU | -0.587 ± 0.049 | 0.0141 ± 0.056 |
| ACGCAGCAAUAUUACGGUUU | -0.937 ± 0.054 | -0.076 ± 0.083 |
| ACGCAGCAAUAUUACGUCGC | -1.16 ± 0.12 | -2.45 ± 0.22 |
| ACGCAGCAAUAUUACGUGAG | -1.19 ± 0.056 | -0.552 ± 0.07 |
| ACGCAGCAAUAUUACGUGAU | -1.78 ± 0.039 | -0.783 ± 0.055 |

| Sequence | self-splicing fitness (ln) (30 °C) | self-splicing fitness (ln) (37 °C) |
| --- | --- | --- |
| ACGCAGCAAUAUUACGUGGA | -3.14 ± 0.14 | -2.37 ± 0.14 |
| ACGCAGCAAUAUUACGUGGC | -2.88 ± 0.14 | -2.26 ± 0.17 |
| ACGCAGCAAUAUUACGUUGC | -2.7 ± 0.1 | -2.75 ± 0.16 |
| ACGGAGCAAUAUUACGAAGG | -3.68 ± 0.21 | -2.7 ± 0.27 |
| ACGGAGCAAUAUUACGACAG | -2.34 ± 0.26 | -2.62 ± 0.34 |
| ACGGAGCAAUAUUACGACCA | -3.73 ± 0.4 | -1.08 ± 0.24 |
| ACGGAGCAAUAUUACGACGA | -1.49 ± 0.1 | -0.442 ± 0.13 |
| ACGGAGCAAUAUUACGACGU | -2.27 ± 0.17 | -1.56 ± 0.23 |
| ACGGAGCAAUAUUACGAGAG | -2.06 ± 0.34 | -2.22 ± 0.45 |
| ACGGAGCAAUAUUACGAGUG |  | -2.8 ± 0.38 |
| ACGGAGCAAUAUUACGCAAU | -2.81 ± 0.24 | -3.02 ± 0.43 |
| ACGGAGCAAUAUUACGCCAG | -4.18 ± 0.43 | -1.11 ± 0.39 |
| ACGGAGCAAUAUUACGCGAC | -2.45 ± 0.21 | -2.55 ± 0.41 |
| ACGGAGCAAUAUUACGCUUA | -2.71 ± 0.17 | -1.03 ± 0.11 |
| ACGGAGCAAUAUUACGCUUC | -2.92 ± 0.21 | -2.81 ± 0.23 |
| ACGGAGCAAUAUUACGCUUU | -4.74 ± 0.38 | -1.98 ± 0.17 |
| ACGGAGCAAUAUUACGGAGC | -1.67 ± 0.34 |  |
| ACGGAGCAAUAUUACGGGAU | -1.84 ± 0.14 | -1.83 ± 0.2 |
| ACGGAGCAAUAUUACGGGGG |  | -1.58 ± 0.29 |
| ACGGAGCAAUAUUACGUCUC | -4.93 ± 0.32 | -1.94 ± 0.15 |
| ACGGAGCAAUAUUACGUUAG | -2.74 ± 0.18 | -2.5 ± 0.33 |
| ACGGAGCAAUAUUACGUUCA | -1.94 ± 0.18 | -0.749 ± 0.13 |
| ACGUAGCAAUAUUACGAAAA | -2.5 ± 0.21 | -1.58 ± 0.19 |
| ACGUAGCAAUAUUACGAAUC | -4.01 ± 0.3 | -2.74 ± 0.3 |

Source: the supplement of paper PMC7877785
